Assay: Isoelectric focusing (PhastSystem), pI of purified protein
Type: physicochemical
Conditions: IEF gel
Procedure: The sample was dissolved in water and applied to a Superdex 75 HR 10/30 gel filtration column equilibrated with 20 mM sodium phosphate pH 6.0, containing 0.15 M NaCl. Fractions were collected and those containing endoglucanase activity were combined. The protein eluate was judged to be pure by SDS-polyacrylamide gel electrophoresis and the molecular mass was evaluated on the basis of molecular mass standards (prestained SDS-PAGE standards, Broad Range, Bio-Rad) to be 54 kDa. The pI of the purified protein, designated as Ct EG—54 was determined with PhastSystem (Pharmacia) to be ca 5.5.
The sample was applied to a Sephacryl S-100 HR 26/60 gel filtration column equilibrated with 50 mM sodium acetate buffer pH 5.0, containing 0.05 M NaCl. The protein fraction containing endoglucanase activity was eluted from the column with a retention volume corresponding to a molecular weight of 16 kDa. Collected fractions were combined, concentrated and gel filtration was repeated. The protein eluate was judged to be pure by SDS-polyacryl amide gel electrophoresis and the molecular weight was evaluated to be 28 kDa. The pI of the purified protein, designated as Ta EG—28, was determined in an IEF gel (PhastSystem, Pharmacia) to be about 3.5. The specific activity of Ta EG—28 at 50° C. was determined to be 4290 nkat/mg (procedure of IUPAC 1987, using CMC as substrate).
The active material from the anion exchange chromatography was applied to a Sephacryl S-300 HR 26/60 column equilibrated with 20 mM sodium phosphate pH 6.5, containing 0.15 M NaCl. The protein with β-glucosidase activity was eluted with a retention volume corresponding to a molecular weight of 243 kDa. The protein was judged to be pure by SDS-polyacrylamide gel electrophoresis and the molecular weight was evaluated to be 101 kDa. The pI of the purified protein, designated as At βG—101, was determined in an IEF gel (PhastSystem, Pharmacia) to be in the area of 5.6-4.9. The specific activity of At βG—101 at 50° C. was determined to be 1100 nkat/mg (using 4-nitrophenyl-β-D-glucopyranoside as substrate, Bailey and Linko, 1990).
The active material from the cation exchange chromatography was applied to a Sephacryl S-300 HR 26/60 column equilibrated with 20 mM sodium phosphate pH 7.0, containing 0.15 M NaCl. The protein with β-glucosidase activity was eluted with a retention volume corresponding to a molecular weight of 294 kDa. […] The protein was judged to be pure by SDS-polyacrylamide gel electrophoresis and the molecular weight was evaluated to be 81 kDa, representing most likely the monomeric form of the protein. […] The specific activity of the purified protein, designated as Ta βG—81, at 50° C. was determined to be 600 nkat/mg using 4-nitrophenyl-β-D-glucopyranoside as substrate (Bailey and Linko, 1990). […]

B1: Ta EG_28: endoglucanase of Thermoascus aurantiacus ALKO4242, gene Ta cel5A, amino acid SEQ ID NO: 10 (protein)
chain: MKLGSLVLALSAARLTLSAPLADRKQETKRAKVFQWFGSNESGAEFGSQNLPGVEGKDYIWPDPNTIDTLISKGMNIFRVPFMMERLVPNSMTGSPDPNYLADLIATVNAITQKGAYAVVDPHNYGRYYNSIISSPSDFQTFWKTVASQFASNPLVIFDTNNEYHDMDQTLVLNLNQAAIDGIRSAGATSQYIFVEGNSWTGAWTWTNVNDNMKSLTDPSDKIIYEMHQYLDSDGSGTSATCVSSTIGQERITSATQWLRANGKKGIIGEFAGGANDVCETAITGMLDYMAQNTDVWTGAIWWAAGPWWGDYIFSMEPDNGIAYQQILPILTPYL
With B1 as the molecule, how does the “pI of the purified protein” value read?
The value was “about 3.5”.
